Tests used:
Experiment in all cases: biochemical
Type in all cases: biochemical
[1] = molecular target: 266 human kinases (Homo sapiens, UniProt P05129); conditions: PKCγ(h); 100 μM
Outline: (§1)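 Steps: kinase transfers radiolabelled phosphate from ATP onto a positively charged substrate; the substrate is trapped on a negatively charged filter; bound radioactivity is counted by scintillation and compared with uninhibited (100%) activity.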

[2] = molecular target: 266 human kinases (Homo sapiens, UniProt P07948); conditions: Lyn(h); 100 μM
Sequence of 266 human kinases (Homo sapiens, UniProt P07948) (P07948 whole entry): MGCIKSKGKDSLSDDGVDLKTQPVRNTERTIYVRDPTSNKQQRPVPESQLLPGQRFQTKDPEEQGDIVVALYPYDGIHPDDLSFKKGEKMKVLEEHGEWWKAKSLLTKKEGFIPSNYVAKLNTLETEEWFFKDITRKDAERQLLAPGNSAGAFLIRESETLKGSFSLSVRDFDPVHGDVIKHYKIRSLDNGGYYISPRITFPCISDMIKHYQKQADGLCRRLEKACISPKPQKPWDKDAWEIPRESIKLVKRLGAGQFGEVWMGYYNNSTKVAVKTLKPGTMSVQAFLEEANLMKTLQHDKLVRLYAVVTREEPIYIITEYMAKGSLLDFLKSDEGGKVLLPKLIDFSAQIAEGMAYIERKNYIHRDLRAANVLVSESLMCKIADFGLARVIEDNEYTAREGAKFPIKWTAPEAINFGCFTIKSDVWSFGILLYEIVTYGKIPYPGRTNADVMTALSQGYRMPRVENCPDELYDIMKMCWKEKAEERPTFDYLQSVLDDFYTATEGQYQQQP
Outline: as §1

[3] = molecular target: 266 human kinases (Homo sapiens, UniProt P08581); conditions: Met(h); 100 μM
Outline: as §1

[4] = molecular target: 266 human kinases (Homo sapiens, UniProt P08581, Y1230H); conditions: Met(Y1248H)(h); 100 μM
Outline: as §1

[5] = molecular target: 266 human kinases (Homo sapiens, UniProt P14616); conditions: IRR(h); 100 μM
Outline: as §1

[6] = molecular target: 266 human kinases (Homo sapiens, UniProt P17948); conditions: Flt1(h); 100 μM
Sequence of 266 human kinases (Homo sapiens, UniProt P17948) (P17948 27-1338): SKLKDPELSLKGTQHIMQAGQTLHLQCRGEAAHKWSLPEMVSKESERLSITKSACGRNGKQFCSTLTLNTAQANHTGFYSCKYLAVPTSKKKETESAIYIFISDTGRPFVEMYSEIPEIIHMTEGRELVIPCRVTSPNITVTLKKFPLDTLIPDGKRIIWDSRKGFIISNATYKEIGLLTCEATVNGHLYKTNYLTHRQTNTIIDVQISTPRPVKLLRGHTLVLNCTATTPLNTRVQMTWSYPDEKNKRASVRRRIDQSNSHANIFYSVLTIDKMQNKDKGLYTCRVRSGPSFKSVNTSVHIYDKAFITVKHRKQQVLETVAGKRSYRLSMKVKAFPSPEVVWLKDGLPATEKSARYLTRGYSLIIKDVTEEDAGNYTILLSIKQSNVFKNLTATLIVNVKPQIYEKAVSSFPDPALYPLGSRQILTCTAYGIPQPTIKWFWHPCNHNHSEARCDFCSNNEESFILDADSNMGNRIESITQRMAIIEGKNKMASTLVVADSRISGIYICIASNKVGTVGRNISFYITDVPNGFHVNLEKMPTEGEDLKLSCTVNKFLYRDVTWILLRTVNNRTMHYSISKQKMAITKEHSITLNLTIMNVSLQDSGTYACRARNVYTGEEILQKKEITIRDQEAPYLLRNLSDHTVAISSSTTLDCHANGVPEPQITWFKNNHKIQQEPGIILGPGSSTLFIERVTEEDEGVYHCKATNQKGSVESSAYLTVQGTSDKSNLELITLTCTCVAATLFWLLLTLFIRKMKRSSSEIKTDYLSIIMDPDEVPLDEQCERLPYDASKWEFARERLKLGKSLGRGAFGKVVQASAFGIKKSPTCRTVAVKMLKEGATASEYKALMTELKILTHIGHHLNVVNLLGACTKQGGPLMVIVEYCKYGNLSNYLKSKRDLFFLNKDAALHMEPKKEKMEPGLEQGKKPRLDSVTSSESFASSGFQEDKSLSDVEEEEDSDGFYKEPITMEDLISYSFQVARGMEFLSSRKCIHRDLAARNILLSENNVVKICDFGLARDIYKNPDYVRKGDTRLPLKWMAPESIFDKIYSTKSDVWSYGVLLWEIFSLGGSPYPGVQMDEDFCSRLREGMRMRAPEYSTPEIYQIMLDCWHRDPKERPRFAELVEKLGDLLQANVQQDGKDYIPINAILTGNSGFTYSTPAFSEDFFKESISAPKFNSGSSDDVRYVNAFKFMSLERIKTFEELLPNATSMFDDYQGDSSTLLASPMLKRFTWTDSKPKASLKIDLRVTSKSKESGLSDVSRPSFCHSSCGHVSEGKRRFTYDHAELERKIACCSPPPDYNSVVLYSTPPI
Outline: as §1

[7] = molecular target: 266 human kinases (Homo sapiens, UniProt P42345); conditions: 100 μM
Outline: as §1

[8] = molecular target: 266 human kinases (Homo sapiens, UniProt P80192); conditions: MLK1(h); 100 μM
Sequence of 266 human kinases (Homo sapiens, UniProt P80192) (P80192 whole entry): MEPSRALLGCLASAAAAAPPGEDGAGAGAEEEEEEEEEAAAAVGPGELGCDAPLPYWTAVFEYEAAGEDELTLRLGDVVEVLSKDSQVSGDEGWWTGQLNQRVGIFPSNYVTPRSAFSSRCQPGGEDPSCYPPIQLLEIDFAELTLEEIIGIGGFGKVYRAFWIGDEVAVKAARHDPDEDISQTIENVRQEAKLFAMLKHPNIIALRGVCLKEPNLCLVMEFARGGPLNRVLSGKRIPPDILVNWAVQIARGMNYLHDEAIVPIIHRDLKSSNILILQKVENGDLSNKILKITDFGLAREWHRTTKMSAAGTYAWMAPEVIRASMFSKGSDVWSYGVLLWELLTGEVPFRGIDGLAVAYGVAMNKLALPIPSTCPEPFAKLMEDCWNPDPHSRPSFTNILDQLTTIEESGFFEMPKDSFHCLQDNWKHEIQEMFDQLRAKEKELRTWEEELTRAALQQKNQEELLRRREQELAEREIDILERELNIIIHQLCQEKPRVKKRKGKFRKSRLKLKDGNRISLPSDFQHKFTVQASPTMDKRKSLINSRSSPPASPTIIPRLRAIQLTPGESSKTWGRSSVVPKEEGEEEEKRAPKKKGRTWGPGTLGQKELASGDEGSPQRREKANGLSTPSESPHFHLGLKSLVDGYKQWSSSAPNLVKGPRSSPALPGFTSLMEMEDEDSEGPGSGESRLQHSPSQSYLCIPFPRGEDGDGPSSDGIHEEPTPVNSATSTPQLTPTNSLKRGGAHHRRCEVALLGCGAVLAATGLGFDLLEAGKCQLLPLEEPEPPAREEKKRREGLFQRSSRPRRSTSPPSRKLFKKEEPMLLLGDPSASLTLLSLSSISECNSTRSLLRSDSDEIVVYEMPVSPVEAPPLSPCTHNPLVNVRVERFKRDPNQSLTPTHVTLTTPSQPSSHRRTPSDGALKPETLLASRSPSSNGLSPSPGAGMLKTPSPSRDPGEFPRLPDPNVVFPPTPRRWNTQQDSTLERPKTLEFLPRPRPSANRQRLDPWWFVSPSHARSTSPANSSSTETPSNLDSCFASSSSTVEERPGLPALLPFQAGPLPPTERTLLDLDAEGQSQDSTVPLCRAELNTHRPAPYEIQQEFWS
Outline: as §1

[9] = molecular target: 266 human kinases (Homo sapiens, UniProt Q04759); conditions: PKCθ(h); 100 μM
Sequence of 266 human kinases (Homo sapiens, UniProt Q04759) (Q04759 whole entry): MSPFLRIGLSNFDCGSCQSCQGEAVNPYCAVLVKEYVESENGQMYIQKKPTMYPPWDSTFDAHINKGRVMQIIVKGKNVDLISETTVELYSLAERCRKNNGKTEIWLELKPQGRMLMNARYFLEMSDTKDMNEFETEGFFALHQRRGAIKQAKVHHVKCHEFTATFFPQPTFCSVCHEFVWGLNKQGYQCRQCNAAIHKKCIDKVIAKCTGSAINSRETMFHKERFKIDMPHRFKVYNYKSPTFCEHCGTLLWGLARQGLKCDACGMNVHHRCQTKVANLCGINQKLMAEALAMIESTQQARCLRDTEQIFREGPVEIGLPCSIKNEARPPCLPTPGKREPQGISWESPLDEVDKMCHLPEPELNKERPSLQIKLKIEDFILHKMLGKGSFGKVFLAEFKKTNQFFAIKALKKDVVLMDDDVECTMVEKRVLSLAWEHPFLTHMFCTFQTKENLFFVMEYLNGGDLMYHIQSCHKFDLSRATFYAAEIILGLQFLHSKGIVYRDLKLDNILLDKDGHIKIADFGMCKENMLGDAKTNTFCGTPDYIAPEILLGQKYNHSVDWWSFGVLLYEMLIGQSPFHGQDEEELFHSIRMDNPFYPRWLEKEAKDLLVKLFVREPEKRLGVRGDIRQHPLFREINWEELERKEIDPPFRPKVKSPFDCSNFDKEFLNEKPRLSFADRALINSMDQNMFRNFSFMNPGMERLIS
Outline: as §1

[10] = molecular target: T1, 266 human kinases (Homo sapiens, UniProt Q05513); conditions: PKCζ(h); 100 μM
T1 sequence (Q05513 1-592): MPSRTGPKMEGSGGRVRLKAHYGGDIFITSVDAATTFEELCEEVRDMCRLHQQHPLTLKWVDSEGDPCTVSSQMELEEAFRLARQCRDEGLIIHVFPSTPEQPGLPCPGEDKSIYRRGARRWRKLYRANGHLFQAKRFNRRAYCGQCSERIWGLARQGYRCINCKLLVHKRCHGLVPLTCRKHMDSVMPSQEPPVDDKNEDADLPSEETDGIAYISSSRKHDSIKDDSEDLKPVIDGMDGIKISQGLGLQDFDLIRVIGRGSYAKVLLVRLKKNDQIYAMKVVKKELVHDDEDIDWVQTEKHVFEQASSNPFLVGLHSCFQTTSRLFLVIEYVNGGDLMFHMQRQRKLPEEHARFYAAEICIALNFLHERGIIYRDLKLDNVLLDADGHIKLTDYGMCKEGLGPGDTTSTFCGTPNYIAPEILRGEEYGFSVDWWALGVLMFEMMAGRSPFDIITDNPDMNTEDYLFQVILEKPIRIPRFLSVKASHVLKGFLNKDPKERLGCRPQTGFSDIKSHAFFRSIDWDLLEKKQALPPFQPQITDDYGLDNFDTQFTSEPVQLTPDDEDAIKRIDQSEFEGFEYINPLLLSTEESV
Outline: as §1

[11] = molecular target: 266 human kinases (Homo sapiens, UniProt Q14289); conditions: Pyk2 (h); 100 μM
Outline: as §1

[12] = molecular target: 266 human kinases (Homo sapiens, UniProt Q86UE8); conditions: TLK2(h); 100 μM
Sequence of 266 human kinases (Homo sapiens, UniProt Q86UE8) (Q86UE8 whole entry): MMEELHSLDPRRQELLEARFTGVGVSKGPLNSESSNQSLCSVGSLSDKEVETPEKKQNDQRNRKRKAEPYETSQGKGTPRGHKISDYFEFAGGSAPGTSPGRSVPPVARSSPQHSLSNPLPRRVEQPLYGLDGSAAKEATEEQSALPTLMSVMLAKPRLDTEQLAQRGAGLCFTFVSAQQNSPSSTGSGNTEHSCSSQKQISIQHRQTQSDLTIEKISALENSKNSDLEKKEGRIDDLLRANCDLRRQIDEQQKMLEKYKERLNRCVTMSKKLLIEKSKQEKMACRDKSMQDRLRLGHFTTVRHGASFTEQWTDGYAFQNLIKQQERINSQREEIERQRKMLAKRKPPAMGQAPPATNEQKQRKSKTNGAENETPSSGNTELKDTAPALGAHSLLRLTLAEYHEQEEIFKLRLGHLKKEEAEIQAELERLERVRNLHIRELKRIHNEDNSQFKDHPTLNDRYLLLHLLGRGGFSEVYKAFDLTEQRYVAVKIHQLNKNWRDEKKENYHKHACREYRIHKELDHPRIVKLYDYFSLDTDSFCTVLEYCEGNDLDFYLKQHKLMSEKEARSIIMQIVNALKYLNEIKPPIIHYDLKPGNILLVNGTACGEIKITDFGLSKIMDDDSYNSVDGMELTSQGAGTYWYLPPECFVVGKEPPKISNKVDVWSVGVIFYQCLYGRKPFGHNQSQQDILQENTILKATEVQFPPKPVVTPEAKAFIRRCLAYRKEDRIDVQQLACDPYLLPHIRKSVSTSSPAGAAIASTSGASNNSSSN
Outline: as §1

[13] = molecular target: 266 human kinases (Homo sapiens, UniProt Q96GD4); conditions: Aurora-B(h); 100 μM
Outline: as §1

[14] = molecular target: T2, 266 human kinases (Homo sapiens, UniProt Q9BZL6); conditions: PKD2(h); 100 μM
T2 sequence (Q9BZL6 1-878): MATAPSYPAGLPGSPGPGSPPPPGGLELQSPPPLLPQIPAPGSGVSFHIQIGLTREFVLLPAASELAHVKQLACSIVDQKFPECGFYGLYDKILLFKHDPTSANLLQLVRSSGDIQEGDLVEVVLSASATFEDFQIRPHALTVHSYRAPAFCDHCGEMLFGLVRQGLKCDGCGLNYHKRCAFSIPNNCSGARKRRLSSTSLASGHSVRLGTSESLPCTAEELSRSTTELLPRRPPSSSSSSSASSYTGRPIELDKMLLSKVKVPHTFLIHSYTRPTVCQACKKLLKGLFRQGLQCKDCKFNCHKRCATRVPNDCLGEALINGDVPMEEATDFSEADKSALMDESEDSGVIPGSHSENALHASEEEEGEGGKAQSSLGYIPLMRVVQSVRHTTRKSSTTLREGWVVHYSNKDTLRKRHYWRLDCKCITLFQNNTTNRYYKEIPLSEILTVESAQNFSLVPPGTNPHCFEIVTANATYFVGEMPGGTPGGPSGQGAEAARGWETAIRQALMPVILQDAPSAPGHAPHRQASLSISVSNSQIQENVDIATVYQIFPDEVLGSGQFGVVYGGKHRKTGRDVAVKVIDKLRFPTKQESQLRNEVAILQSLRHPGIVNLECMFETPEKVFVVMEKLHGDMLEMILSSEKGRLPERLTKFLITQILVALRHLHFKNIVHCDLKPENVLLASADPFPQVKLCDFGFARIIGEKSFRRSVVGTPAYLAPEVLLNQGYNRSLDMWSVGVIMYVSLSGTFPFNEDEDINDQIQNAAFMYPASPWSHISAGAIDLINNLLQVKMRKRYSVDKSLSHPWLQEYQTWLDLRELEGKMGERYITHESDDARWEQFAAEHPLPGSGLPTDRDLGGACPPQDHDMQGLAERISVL
Outline: as §1

[15] = molecular target: 266 human kinases (Homo sapiens, UniProt Q9HC98); conditions: NEK6(h); 100 μM
Outline: as §1

[16] = molecular target: 266 human kinases (Homo sapiens, UniProt Q9Y3S1); conditions: WNK2(h); 100 μM
Outline: as §1

HRRIKAWLKKIKALARQLGVAA (mammal) [MMI-0500]
% activity [1]: 6% | % activity [2]: 31% | % activity [3]: 27% | % activity [4]: 126% | % activity [5]: 10% | % activity [6]: 27% | % activity ([7]; mTOR(h)): 135% | % activity ([7]; mTOR/FKBP12(h)): 140% | % activity [8]: 43% | % activity [9]: 62% | % activity [10]: 7% | % activity [11]: 46% | % activity [12]: 133% | % activity [13]: 5% | % activity [14]: 10% | % activity [15]: 49% | % activity [16]: 8%

YARAAARQARAKALNRQLGVA (mammal) [MMI-0200]
% activity [1]: 101% | % activity [2]: 98% | % activity [3]: 71% | % activity [4]: 153% | % activity [5]: 69% | % activity [6]: 96% | % activity ([7]; mTOR(h)): 110% | % activity ([7]; mTOR/FKBP12(h)): 118% | % activity [8]: 84% | % activity [9]: 101% | % activity [10]: 98% | % activity [11]: 127% | % activity [12]: 129% | % activity [13]: 166% | % activity [14]: 78% | % activity [15]: 98% | % activity [16]: 94%
